# Source: PMC6504924, “Utilizing a Simple Method for Stoichiometric Protein Labeling to Quantify Antibody Blockade” (Scientific Reports, 2019)
# T1: unlabeled VEGF165a homodimer purified in the same manner (with CDN N-terminal appendage)
# T1 chain: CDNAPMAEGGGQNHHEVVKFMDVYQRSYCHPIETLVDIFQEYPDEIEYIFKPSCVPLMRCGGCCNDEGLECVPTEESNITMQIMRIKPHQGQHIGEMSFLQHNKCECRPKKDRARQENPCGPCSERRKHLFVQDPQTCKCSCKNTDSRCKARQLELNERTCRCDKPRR
# B1: unlabeled PDGF-BB homodimer purified in the same manner (with CDN N-terminal appendage) (ligand)
# chain: CDNSLGSLTIAEPAMIAECKTRTEVFEISRRLIDRTNANFLVWPPCVEVQRCSGCCNNRNVQCRPTQVQLRPVQVRKIEIVRKKPIFKKATVTLEDHLACKCETVAAARPVT
# notes: three-amino acid N-terminal appendage left after HaloTEV cleavage of the modified TEV site EDLYFQC; platelet-derived growth factor subunit B (PDGF-B); Disulfide-linked homodimer; also called PDFG-B; source: HEK293T, transiently expressed as secreted HaloTag fusion, purified (HaloLink beads, HaloTEV release); not shown: HaloTag, N-terminal, cleaved
# B2: unlabeled VEGF165a homodimer purified in the same manner (with CDN N-terminal appendage) (ligand)
# chain: T1 chain
# modifications: disulfide-linked homodimer; unlabeled; mature VEGF165 limits by convention (191-aa AUG-initiated isoform precursor, signal 1-26) / disulfide-linked homodimer; unlabeled; mature VEGF165 limits by …
# Columns and labels:
# [1] = target: the molecule itself; assay: SDS-PAGE with and without reducing agent; purified growth factors resolved by SDS-PAGE in the presence and absence of 100 mM dithiothreitol (DTT)
# [2] = target: T1, unlabeled VEGF165a homodimer purified …; assay: as above; conditions: both partners purified
Binder,stoichiometry N [1],stoichiometry N [2]
B1,2,
B2,,2
